Assay results as given in US7264809B1, “Methods of inhibiting platelet activation and recruitment” (Immunex Corporation, priority 1998, dated 2007).

Legend:
[1] = Mouse lung ischemia-reperfusion survival model; format: in vivo, C57BL/6 mice; settings: 8 mg/kg i.v.
Experimental: C57BL/6 mice were anesthetized and ventilated, and their thoraces were opened to surgically expose both pulmonary hila. Either physiological saline or soluble CD39 (8 mg/kg) was administered intravenously, after which the left pulmonary hilum was cross-clamped for one hour. The cross-clamp was removed for three hours of reperfusion, and then a cross-clamp was applied to the right hilum for a thirty minute observation period. This latter maneuver effectively removed the normal lung from circulation, so that the mouse must survive on the function of the post-ischemic left lung. The results are shown, in the form of a Kaplan-Meier survival plot, in FIG. 23.

platelets [2] = test: ADP-induced platelet aggregation after solCD39 bolus in pigs; format: in vivo, Yorkshire-Hampshire pigs; settings: high dose solCD39
Experimental: (§1) Aspirin was administered orally on a daily basis. Placebo controls consisted of aspirin. Saline controls and solCD39 were administered as a single bolus. Time points were measured following this administration. Blood samples were obtained via an external jugular vein catheter. […] ADP-induced platelet aggregation was measured at specific time intervals following administration. The concentration of CD39 in serum as a function of time was measured using an ELISA assay.

[3] = Bleeding time and tolerability in pigs; format: in vivo, Yorkshire-Hampshire pigs
Experimental: as §1

[4] = TLC assay for ADPase activity; format: biochemical
Experimental: Following growth in selective medium, CM from CHO cell cultures was analyzed for ATPase and ADPase activities. ADPase assays (Marcus et al., J. Clin. Invest. 88:1690, 1991) were primarily used in determining enzyme kinetics and pharmacokinetics. Test samples were incubated with 50 μM [^14C] ADP (NEN Life Science Products) in assay buffer (15 mM Tris, 134 mM NaCl, 5 mM glucose, pH 7.4, containing 10 μM Ap5A (P^1,P^5-di[adenosine-5′]pentaphosphate, 1 mM ouabain, 10 μM dipyridamole, and 3 mM CaCl2) in a total volume of 50 μl (5 min, 37° C.). Reactions were stopped by placement on ice and addition of 10 μl “stop solution” (160 mM disodium EDTA, pH 7.0, 17 mM ADP, 0.15 M NaCl) to block further metabolism of ADP. Nucleotides, nucleosides, and bases were separated by TLC using isobutanol/1-pentanol/ethylene glycol monoethyl ether/NH4OH/H2O (90:60:180:90:120). Radioactivity was quantified by radio TLC scanning (RTLC multiscanner; Packard, Meriden, Conn.). Results were calculated as averages of duplicate to quadruplicate measurements after subtraction of buffer blanks (consistently <1% of total radioactivity). Data were expressed as percentage of ADP metabolized or as pmol ADP metabolized per minute per μl CM. A unit of activity is the quantity of enzyme which will degrade 1 μmol of ADP in 1 min at 37° C. Identical assays were performed using ATP as a substrate in order to examine the kinetics of the ATPase activity of CD39.
Using the TLC assay system described in Example 12B, the ADPase activity of the membrane-bound HUVEC ecto-ADPase was determined at different pHs in buffers containing 100 mM bis-trispropane (Sigma, St. Louis, Mo.). […] Kinetic constants for CD39 metabolism of ATP and ADP were determined by measuring the initial rates of reaction as analyzed in the TLC system.

platelets [5] = test: Ex vivo additive inhibition of platelet aggregation in patient platelet rich plasma; format: cell-based, human

B1: solCD39: recombinant soluble human CD39, untagged: 12 mature huIL2 residues, three amino acid linker, sol CD39 (SEQ ID NO:7) (protein)
chain: MALWIDRMQLLSCIALSLALVTNSAPTSSSTKKTQLTSSTQNKALPENVKYGIVLDAGSSHTSLYIYKWPAEKENDTGVVHQVEECRVKGPGISKFVQKVNEIGIYLTDCMERAREVIPRSQHQETPVYLGATAGMRLLRMESEELADRVLDVVERSLSNYPFDFQGARIITGQEEGAYGWITINYLLGKFSQKTRWFSIVPYETNNQETFGALDLGGASTQVTFVPQNQTIESPDNALQFRLYGKDYNVYTHSFLCYGKDQALWQKLAKDIQVASNEILRDPCFHPGYKKVVNVSDLYKTPCTKRFEMTLPFQQFEIQGIGNYQQCHQSILELFNTSYCPYSQCAFNGIFLPPLQGDFGAFSAFYFVMKFLNLTSEKVSQEKVTEMMKKFCAQPWEEIKTSYAGVKEKYLSEYCFSGTYILSLLLQGYHFTADSWEHIHFIGKIQGSDAGWTLGYMLNLTNMIPAEQPLSTPLSHST
- survival at thirty minutes on post-ischemic lung [1]: survived
- inhibition of platelet aggregation at two weeks (platelets [2]): 30%
- anemia or thrombocytopenia ([3]; pig, in vivo): did not induce
- tolerability ([3]; pigs, 72-670 μg/kg bolus): well tolerated
- Vmax for ADP ([4]; 2×10^−9 M solCD39): 72 pmol/min
- kcat (ADP) ([4]; 2×10^−9 M solCD39): 12 s⁻¹
- specific activity for ADP ([4]; purified recombinant solCD39): 11 U/mg
- Platelet aggregation (platelets [5]; SolCD39 10 μg/ml, ADP, Abciximab group): 0 ± 0 arbitrary units
- Platelet aggregation (platelets [5]; SolCD39 10 μg/ml, ADP, Aspirin group): 4 ± 2 arbitrary units
- Platelet aggregation (platelets [5]; SolCD39 10 μg/ml, ADP, Clopidogrel group): 5 ± 2 arbitrary units
- Platelet aggregation (platelets [5]; SolCD39 10 μg/ml, ADP, Placebo group): 0 ± 0 arbitrary units
- Platelet aggregation (platelets [5]; SolCD39 10 μg/ml, ADP, Ticlopidine group): 10 ± 2 arbitrary units
- Platelet aggregation (platelets [5]; SolCD39 10 μg/ml, Collagen, Abciximab group): 0 ± 0 arbitrary units
- Platelet aggregation (platelets [5]; SolCD39 10 μg/ml, Collagen, Aspirin group): 21 ± 4 arbitrary units
- Platelet aggregation (platelets [5]; SolCD39 10 μg/ml, Collagen, Clopidogrel group): 31 ± 9 arbitrary units
- Platelet aggregation (platelets [5]; SolCD39 10 μg/ml, Collagen, Placebo group): 75 ± 2 arbitrary units
- Platelet aggregation (platelets [5]; SolCD39 10 μg/ml, Collagen, Ticlopidine group): 48 ± 18 arbitrary units
- Platelet aggregation (platelets [5]; SolCD39 10 μg/ml, TRAP, Abciximab group): 22 ± 10 arbitrary units
- Platelet aggregation (platelets [5]; SolCD39 10 μg/ml, TRAP, Aspirin group): 38 ± 7 arbitrary units
- Platelet aggregation (platelets [5]; SolCD39 10 μg/ml, TRAP, Clopidogrel group): 35 ± 1 arbitrary units
- Platelet aggregation (platelets [5]; SolCD39 10 μg/ml, TRAP, Placebo group): 70 ± 3 arbitrary units
- Platelet aggregation (platelets [5]; SolCD39 10 μg/ml, TRAP, Ticlopidine group): 19 ± 6 arbitrary units
- Platelet aggregation (platelets [5]; SolCD39 100 μg/ml, ADP, Abciximab group): 0 ± 0 arbitrary units
- Platelet aggregation (platelets [5]; SolCD39 100 μg/ml, ADP, Aspirin group): 1 ± 0 arbitrary units
- Platelet aggregation (platelets [5]; SolCD39 100 μg/ml, ADP, Clopidogrel group): 0 ± 0 arbitrary units
- Platelet aggregation (platelets [5]; SolCD39 100 μg/ml, ADP, Placebo group): 0 ± 0 arbitrary units
- Platelet aggregation (platelets [5]; SolCD39 100 μg/ml, ADP, Ticlopidine group): 2 ± 2 arbitrary units
- Platelet aggregation (platelets [5]; SolCD39 100 μg/ml, Collagen, Abciximab group): 0 ± 0 arbitrary units
- Platelet aggregation (platelets [5]; SolCD39 100 μg/ml, Collagen, Aspirin group): 16 ± 4 arbitrary units
- Platelet aggregation (platelets [5]; SolCD39 100 μg/ml, Collagen, Clopidogrel group): 21 ± 6 arbitrary units
- Platelet aggregation (platelets [5]; SolCD39 100 μg/ml, Collagen, Placebo group): 57 ± 5 arbitrary units
- Platelet aggregation (platelets [5]; SolCD39 100 μg/ml, Collagen, Ticlopidine group): 37 ± 15 arbitrary units
- Platelet aggregation (platelets [5]; SolCD39 100 μg/ml, TRAP, Abciximab group): 22 ± 9 arbitrary units
- Platelet aggregation (platelets [5]; SolCD39 100 μg/ml, TRAP, Aspirin group): 26 ± 5 arbitrary units
- Platelet aggregation (platelets [5]; SolCD39 100 μg/ml, TRAP, Clopidogrel group): 23 ± 3 arbitrary units
- Platelet aggregation (platelets [5]; SolCD39 100 μg/ml, TRAP, Placebo group): 65 ± 4 arbitrary units
- Platelet aggregation (platelets [5]; SolCD39 100 μg/ml, TRAP, Ticlopidine group): 18 ± 7 arbitrary units
